The values that follow come from the supplement of paper PMC7877785.

This data set can be described thus: self-splicing fitness, log relative to wild type (ln ratio); higher = more splicing; Tetrahymena group I intron in knt gene, E. coli kanamycin selection, DiMSum; sequences stand for … in CUCUCU…GGAGGGAAAAGUUAUCAGGCAUGCACCUGGUAGCUAGUCUUUAAACCAAUAGAUUGCAUCGGUUUAAAAGGCAAGACCGUCAAAUUGCGGGAAAGGGGUCAACAGCCGUUCAGUACCAAGUCUCAGGGGAAACUUUGAGAUGGCCUUGCAAAGGGUAUGGUAAUAAGCUGACGGACAUGGUCCUAACCACGCAGCCAAGUCCUAAGUCAACAGAUCUUCUGUUGAUAUGGAUGCAGUUCACAGACUAAAUGUCGGUCGGGGAAGAUGUAUUCUUCUCAUAAGAUAUAGUCGGACCUCUCCUUAAUGGGAGCUAGCGGAUGAAGUGAUGCAACACUGGAGCCGCUGGGAACUAAUUUGUAUGCGAAAGUAUAUUGAUUAGUUUUGGAGUACUCGUGGUCG
A digest of the protocol:
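DiMSum derived fitness as the error-weighted combination of fold changes across replicates, kanamycin versus no kanamycin, normalised to wild type. E. coli BL21(DE3) held the library, which randomised all eight P1ex-region intron nucleotides within the knt kanamycin-resistance gene on pET-22b(+). Six replicate transformations grew overnight at 37°C or 30°C on LB agar with or without 25 μg/mL kanamycin, also containing 100 μg/mL carbenicillin, 50 μM IPTG and 0.2% rhamnose, and pooled colonies were amplicon-sequenced on an Illumina HiSeq 2500.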

± gives the uncertainty stated by the source.

Take ACCUAGCAAUAUUACGCGGA: the “self-splicing fitness (ln)” value is, setting by setting: (30 °C) -1.04 ± 0.085; (37 °C) -0.0825 ± 0.086.

Regarding UUUGAGCAAUAUUACGGAGU, the “self-splicing fitness (ln)” value (30 °C) was -2.49 ± 0.28.

For the sequence GAGGAGCAAUAUUACGCCCA, the “self-splicing fitness (ln)” value by setting is: (30 °C) 0.0821 ± 0.26; (37 °C) -0.507 ± 0.37.

Turning to GGGGAGCAAUAUUACGGAGC, the “self-splicing fitness (ln)” value is -2.66 ± 0.33 (30 °C) and -1.79 ± 0.2 (37 °C).

Consider GCCAAGCAAUAUUACGUCUC, for which the “self-splicing fitness (ln)” value was -0.775 ± 0.067 (30 °C) and -0.174 ± 0.087 (37 °C).

Take UCGAAGCAAUAUUACGUGGU: the “self-splicing fitness (ln)” value by setting is: (30 °C) -3.51 ± 0.18; (37 °C) -2.88 ± 0.24.

Regarding AGGAAGCAAUAUUACGUGAC, the “self-splicing fitness (ln)” value is, setting by setting: (30 °C) -3.65 ± 0.22; (37 °C) -2.45 ± 0.15.

Turning to CAUUAGCAAUAUUACGACCA, the “self-splicing fitness (ln)” value (30 °C) was -2.56 ± 0.42 and the “self-splicing fitness (ln)” value (37 °C) was -1.67 ± 0.37.

Consider GGGCAGCAAUAUUACGAUCA, for which the “self-splicing fitness (ln)” value is, setting by setting: (30 °C) -1.56 ± 0.13; (37 °C) -0.598 ± 0.15.

For the sequence CGAGAGCAAUAUUACGCAAA, the “self-splicing fitness (ln)” value (30 °C) is -2.67 ± 0.27.

With UGAAAGCAAUAUUACGUCUG, the “self-splicing fitness (ln)” value was -0.102 ± 0.071 (30 °C) and 0.773 ± 0.09 (37 °C).

With UCCAAGCAAUAUUACGCUGA, the “self-splicing fitness (ln)” value was -1.43 ± 0.092 (30 °C) and -1.07 ± 0.085 (37 °C).

Regarding CCACAGCAAUAUUACGUCUG, the “self-splicing fitness (ln)” value was -3.12 ± 0.088 (30 °C) and -1.98 ± 0.083 (37 °C).

As to UCCAAGCAAUAUUACGUUUG, the “self-splicing fitness (ln)” value is, setting by setting: (30 °C) -3.5 ± 0.15; (37 °C) -2.97 ± 0.2.

As to UCGAAGCAAUAUUACGCCUA, the “self-splicing fitness (ln)” value (37 °C) was -1.71 ± 0.42.

Regarding GUAAAGCAAUAUUACGUGCG, the “self-splicing fitness (ln)” value is, setting by setting: (30 °C) -0.447 ± 0.065; (37 °C) -0.538 ± 0.069.

For UUCGAGCAAUAUUACGCGGC, the “self-splicing fitness (ln)” value (37 °C) was -2.29 ± 0.49.

UUGAAGCAAUAUUACGGUUG: the “self-splicing fitness (ln)” value was -0.894 ± 0.053 (30 °C) and -0.569 ± 0.07 (37 °C).

Regarding AAAUAGCAAUAUUACGCGGA, the “self-splicing fitness (ln)” value is -1.9 ± 0.12 (30 °C) and -0.348 ± 0.081 (37 °C).

As to AUCGAGCAAUAUUACGGUAG, the “self-splicing fitness (ln)” value (37 °C) is -1.93 ± 0.27.

Regarding AAGUAGCAAUAUUACGCAAU, the “self-splicing fitness (ln)” value is -2.09 ± 0.14 (30 °C) and -1.46 ± 0.17 (37 °C).

On to CUUUAGCAAUAUUACGCAAG, for which the “self-splicing fitness (ln)” value is -2.43 ± 0.22 (30 °C) and -1.67 ± 0.3 (37 °C).

As for GGUCAGCAAUAUUACGGAAG, the “self-splicing fitness (ln)” value (30 °C) was -2.27 ± 0.2 and the “self-splicing fitness (ln)” value (37 °C) was -1.58 ± 0.23.

As to UGGAAGCAAUAUUACGAUAA, the “self-splicing fitness (ln)” value is, setting by setting: (30 °C) -1.6 ± 0.12; (37 °C) -0.36 ± 0.15.

Turning to UGGUAGCAAUAUUACGGAAU, where the note is “37 °C”, the “self-splicing fitness (ln)” value was -0.962 ± 0.23.

Take CAGCAGCAAUAUUACGUAGU: the “self-splicing fitness (ln)” value runs as follows: (30 °C) -3.03 ± 0.12; (37 °C) -2.56 ± 0.13.

As to CCUAAGCAAUAUUACGAAUA, the “self-splicing fitness (ln)” value (30 °C) is -3.51 ± 0.35.

Turning to UUGCAGCAAUAUUACGUCUG, the “self-splicing fitness (ln)” value by setting is: (30 °C) -3.23 ± 0.16; (37 °C) -2.32 ± 0.18.

With UUAGAGCAAUAUUACGAUGG, the “self-splicing fitness (ln)” value reads like this: (30 °C) -1.02 ± 0.15; (37 °C) 0.108 ± 0.19.

Consider GUGGAGCAAUAUUACGACUC, for which the “self-splicing fitness (ln)” value runs as follows: (30 °C) -3.19 ± 0.45; (37 °C) -1.47 ± 0.44.

CAGGAGCAAUAUUACGACGG: the “self-splicing fitness (ln)” value is -1.44 ± 0.054 (30 °C) and -0.588 ± 0.053 (37 °C).

Take AUUGAGCAAUAUUACGCAGA: the “self-splicing fitness (ln)” value (37 °C) is -2.45 ± 0.41.

On to GCGCAGCAAUAUUACGGGGA, for which the “self-splicing fitness (ln)” value reads like this: (30 °C) -2.23 ± 0.14; (37 °C) -0.687 ± 0.11.

As for ACGGAGCAAUAUUACGGUAC, the “self-splicing fitness (ln)” value by setting is: (30 °C) -4.95 ± 0.36; (37 °C) -2.3 ± 0.22.

For the sequence AGUGAGCAAUAUUACGUCGU, the “self-splicing fitness (ln)” value was -3.79 ± 0.2 (30 °C) and -2.07 ± 0.14 (37 °C).

Consider AUACAGCAAUAUUACGGCCU, for which the “self-splicing fitness (ln)” value (30 °C) is -0.505 ± 0.093 and the “self-splicing fitness (ln)” value (37 °C) was found to be 0.263 ± 0.1.
